Laboratory results: patent US20110301079A1 (INSTITUTO DI RICERCHE DI BIOLOGIA MOLECOLARE P ANGELETTI S …, published 2011)
Groups on a side chain read outwards from the residue. *: point of attachment. cholesteroyl = cholesterol group linked to a cysteine residue via the side-chain thiol; Succinimide(1-Et,3-yl) = CCN1C(=O)CC(*)C1=O

T1: human NMUR1 (human, UniProt Q9HB89 1-426)
T1 sequence (looked up): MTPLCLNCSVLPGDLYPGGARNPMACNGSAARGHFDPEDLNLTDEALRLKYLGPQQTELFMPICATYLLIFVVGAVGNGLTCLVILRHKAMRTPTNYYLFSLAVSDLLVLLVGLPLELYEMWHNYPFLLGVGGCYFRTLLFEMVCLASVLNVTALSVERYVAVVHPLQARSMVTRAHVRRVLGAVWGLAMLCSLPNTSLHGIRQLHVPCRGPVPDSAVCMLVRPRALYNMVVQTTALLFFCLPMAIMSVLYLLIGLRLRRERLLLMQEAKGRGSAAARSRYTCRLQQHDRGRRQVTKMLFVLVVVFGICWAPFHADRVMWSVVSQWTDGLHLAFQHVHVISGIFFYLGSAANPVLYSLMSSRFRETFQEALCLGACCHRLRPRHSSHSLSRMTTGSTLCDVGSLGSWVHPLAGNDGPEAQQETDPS

T2: mouse NMUR1-ATG (mouse, UniProt O55040 1-428)
T2 sequence (looked up): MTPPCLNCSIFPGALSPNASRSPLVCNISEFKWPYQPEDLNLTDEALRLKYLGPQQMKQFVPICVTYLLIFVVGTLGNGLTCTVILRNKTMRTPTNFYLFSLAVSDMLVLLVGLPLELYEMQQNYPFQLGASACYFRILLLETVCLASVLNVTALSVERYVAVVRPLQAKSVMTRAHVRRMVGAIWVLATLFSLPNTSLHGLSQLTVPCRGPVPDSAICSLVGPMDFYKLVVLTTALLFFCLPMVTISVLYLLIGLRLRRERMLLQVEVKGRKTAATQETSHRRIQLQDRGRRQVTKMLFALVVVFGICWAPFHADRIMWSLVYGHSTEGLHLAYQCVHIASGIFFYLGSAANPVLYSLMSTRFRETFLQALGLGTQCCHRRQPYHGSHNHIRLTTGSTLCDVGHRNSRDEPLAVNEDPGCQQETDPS

T3: dog NMUR1-ATG (dog, UniProt A0A8I3S7S8 1-422)
T3 sequence: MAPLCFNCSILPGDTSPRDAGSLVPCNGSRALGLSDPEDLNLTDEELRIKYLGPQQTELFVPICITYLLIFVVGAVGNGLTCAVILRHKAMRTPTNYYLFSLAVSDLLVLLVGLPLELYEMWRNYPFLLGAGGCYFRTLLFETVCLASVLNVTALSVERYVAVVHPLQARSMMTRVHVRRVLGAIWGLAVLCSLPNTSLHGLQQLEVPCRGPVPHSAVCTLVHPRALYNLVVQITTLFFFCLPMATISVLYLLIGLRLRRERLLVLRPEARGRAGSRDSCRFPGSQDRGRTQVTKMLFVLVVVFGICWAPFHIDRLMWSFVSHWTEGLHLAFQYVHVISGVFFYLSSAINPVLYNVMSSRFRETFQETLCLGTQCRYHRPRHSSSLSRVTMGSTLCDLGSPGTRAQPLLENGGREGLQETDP


How the values were obtained:
Test in all cases: cell-based or functional assay
[1] = target: T1, human NMUR1
[2] = target: mouse NMUR2 (mouse, UniProt Q8BZ39 1-395)
[3] = target: T2, mouse NMUR1-ATG
[4] = target: T3, dog NMUR1-ATG
[5] = target: dog NMUR2 (dog)
[6] = target: human NMUR2 (human, UniProt Q9GZQ4 1-415)
human NMUR2, sequence (Q9GZQ4 whole entry): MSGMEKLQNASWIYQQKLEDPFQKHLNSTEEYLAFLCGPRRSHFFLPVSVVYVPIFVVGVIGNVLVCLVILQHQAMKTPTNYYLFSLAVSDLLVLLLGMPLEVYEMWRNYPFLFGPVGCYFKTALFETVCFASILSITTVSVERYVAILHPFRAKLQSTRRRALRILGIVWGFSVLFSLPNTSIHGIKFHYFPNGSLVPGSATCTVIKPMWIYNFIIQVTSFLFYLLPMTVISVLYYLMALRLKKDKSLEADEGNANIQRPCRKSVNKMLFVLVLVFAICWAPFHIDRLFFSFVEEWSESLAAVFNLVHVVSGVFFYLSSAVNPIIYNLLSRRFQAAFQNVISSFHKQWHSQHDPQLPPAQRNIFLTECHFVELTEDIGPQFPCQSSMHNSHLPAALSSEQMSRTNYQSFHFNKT

mouse NMUR2, sequence (Q8BZ39 whole entry): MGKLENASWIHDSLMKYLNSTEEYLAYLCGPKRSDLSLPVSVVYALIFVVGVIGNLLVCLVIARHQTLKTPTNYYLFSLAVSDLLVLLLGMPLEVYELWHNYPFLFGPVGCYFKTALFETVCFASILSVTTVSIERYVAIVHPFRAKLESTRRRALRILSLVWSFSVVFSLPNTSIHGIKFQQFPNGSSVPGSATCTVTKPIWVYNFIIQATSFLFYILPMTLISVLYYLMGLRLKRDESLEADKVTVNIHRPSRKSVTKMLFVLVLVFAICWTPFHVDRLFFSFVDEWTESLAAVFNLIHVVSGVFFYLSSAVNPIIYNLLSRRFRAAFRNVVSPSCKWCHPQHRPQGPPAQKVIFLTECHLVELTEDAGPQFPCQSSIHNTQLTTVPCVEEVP

Row | % Activity (maximum response at 1 µM compared to the human NMU-25 response) [1] [%] | % Activity (maximum response at 1 µM compared to the human NMU-25 response) [2] [%] | % Activity (maximum response at 1 µM compared to the human NMU-25 response) [3] [%] | % Activity (maximum response at 1 µM compared to the human NMU-25 response) [4] [%] | % Activity (maximum response at 1 µM compared to the human NMU-25 response) [5] [%] | % Activity (maximum response at 1 µM compared to the human NMU-25 response) [6] [%] | Binder
1 | 91 | 99 | 82 | 97 | 78 | 81 | Ac-C([maleimide-(PEG)2 40 kDa])ILQRGSGTAAVDFTKKDHTATWGRPFFLFRPRN-NH2 [NMS1 (Ac-C2ILQRGSGTAAVDFTKKDHTATWGRPFFLFRPRN-CONH2)]
2 | 11 | 32 | 39 | 46 | 84 | 16 | Ac-C(cholesteroyl)ILQRGSGTAAVDFTKKDHTATWGRPFFLFRPRN-NH2 [NMS2 (Ac-C3ILQRGSGTAAVDFTKKDHTATWGRPFFLFRPRN-CONH2)]
3 | 97 | 108 | 98 | 101 | 107 | 105 | Ac-C(Succinimide(1-Et,3-yl))ILQRGSGTAAVDFTKKDHTATWGRPFFLFRPRN-NH2 (SMILES CC[C@H](C)[C@H](NC(=O)[C@H](CSC1CC(=O)N(CC)C1=O)NC(C)=O)C(=O)N[C@@H](CC(C)C)C(=O)N[C@@H](CCC(N)=O)C(=O)N[C@@H](CCCNC(=N)N)C(=O)NCC(=O)N[C@@H](CO)C(=O)NCC(=O)N[C@H](C(=O)N[C@@H](C)C(=O)N[C@@H](C)C(=O)N[C@H](C(=O)N[C@@H](CC(=O)O)C(=O)N[C@@H](Cc1ccccc1)C(=O)N[C@H](C(=O)N[C@@H](CCCCN)C(=O)N[C@@H](CCCCN)C(=O)N[C@@H](CC(=O)O)C(=O)N[C@@H](Cc1c[nH]cn1)C(=O)N[C@H](C(=O)N[C@@H](C)C(=O)N[C@H](C(=O)N[C@@H](Cc1c[nH]c2ccccc12)C(=O)NCC(=O)N[C@@H](CCCNC(=N)N)C(=O)N1CCC[C@H]1C(=O)N[C@@H](Cc1ccccc1)C(=O)N[C@@H](Cc1ccccc1)C(=O)N[C@@H](CC(C)C)C(=O)N[C@@H](Cc1ccccc1)C(=O)N[C@@H](CCCNC(=N)N)C(=O)N1CCC[C@H]1C(=O)N[C@@H](CCCNC(=N)N)C(=O)N[C@@H](CC(N)=O)C(N)=O)[C@@H](C)O)[C@@H](C)O)[C@@H](C)O)C(C)C)[C@@H](C)O) [NMS3 (Ac-C1ILQRGSGTAAVDFTKKDHTATWGRPFFLFRPRN-CONH2)]
4 | 97 | 111 | 102 | 100 | 104 | 107 | H-ILQRGSGTAAVDFTKKDHTATWGRPFFLFRPRN-NH2 [native human Neuromedin S peptide (NMS)]
5 | 85 | 78 | 83 | 82 | 100 | 93 | ILQRGSGTAAVDFTKKDHTATWGRPFFLFRPRN (HELM PEPTIDE1{[CCCCCCCCCCCCCCCC(=O)[*:2]].I.L.Q.R.G.S.G.T.A.A.V.D.F.T.K.K.D.H.T.A.T.W.G.R.P.F.F.L.F.R.P.R.N.[am]}$$$$V2.0; SMILES CCCCCCCCCCCCCCCC(=O)N[C@H](C(=O)N[C@@H](CC(C)C)C(=O)N[C@@H](CCC(N)=O)C(=O)N[C@@H](CCCNC(=N)N)C(=O)NCC(=O)N[C@@H](CO)C(=O)NCC(=O)N[C@H](C(=O)N[C@@H](C)C(=O)N[C@@H](C)C(=O)N[C@H](C(=O)N[C@@H](CC(=O)O)C(=O)N[C@@H](Cc1ccccc1)C(=O)N[C@H](C(=O)N[C@@H](CCCCN)C(=O)N[C@@H](CCCCN)C(=O)N[C@@H](CC(=O)O)C(=O)N[C@@H](Cc1c[nH]cn1)C(=O)N[C@H](C(=O)N[C@@H](C)C(=O)N[C@H](C(=O)N[C@@H](Cc1c[nH]c2ccccc12)C(=O)NCC(=O)N[C@@H](CCCNC(=N)N)C(=O)N1CCC[C@H]1C(=O)N[C@@H](Cc1ccccc1)C(=O)N[C@@H](Cc1ccccc1)C(=O)N[C@@H](CC(C)C)C(=O)N[C@@H](Cc1ccccc1)C(=O)N[C@@H](CCCNC(=N)N)C(=O)N1CCC[C@H]1C(=O)N[C@@H](CCCNC(=N)N)C(=O)N[C@@H](CC(N)=O)C(N)=O)[C@@H](C)O)[C@@H](C)O)[C@@H](C)O)C(C)C)[C@@H](C)O)[C@@H](C)CC) [NMS5 (Pam-ILQRGSGTAAVDFTKKDHTATWGRPFFLFRPRN-CONH2)]
6 | 88 | 104 | 95 | 81 | 101 | 94 | Ac-C([maleimide-PEG 40 kDa])ILQRGSGTAAVDFTKKDHTATWGRPFFLFRPRN-NH2 [NMS4 (Ac-C4ILQRGSGTAAVDFTKKDHTATWGRPFFLFRPRN-CONH2)]
